Measurements published in patent US20050065102, “Medicinal compositions” (published 2005).

Target: HMG-I (HMGA1a), partially purified (Homo sapiens, UniProt P17096 P17096:2-107)
Assay: pulldown; affinity column, eluted with 1 M NaCl; identified by peptide sequencing
Details: tags: ammonium sulfate and DEAE fractions from hypoxic SK-N-SH
Protocol: The above fraction (III) was dialyzed twice against 5 L of 50 mM Tris-HCl buffer (pH 7.5) at 4° C. for 4 hours. Then, the resulting dialysate was applied to 5′-amino-2′-O-methyl oligo RNA (5′-[…]-3′, SEQ ID NO: 24)-coupled CNBr-activated Sepharose 4B (manufactured by Pharmacia Biotech) affinity column. The above affinity column was washed with 10 ml of the above incubation buffer and then eluted with 15 ml of the incubation buffer containing 1 M NaCl to give a fraction having a binding activity to the RNA probe of No. 5 [fraction (IV), FIG. 7 (IV)] (FIG. 9, lane 4). The result of silver staining of fraction (IV) is shown in lane 4 in FIG. 8, and the result of RNA binding assay thereof is shown in lane 4 in FIG. 9.

HMG-I (HMGA1a), partially purified, sequence (P17096 2-107, one chain of several): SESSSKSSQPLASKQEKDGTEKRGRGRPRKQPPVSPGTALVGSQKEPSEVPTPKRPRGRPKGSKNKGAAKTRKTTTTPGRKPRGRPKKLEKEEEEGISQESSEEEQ

Binder: AUCUUCUUGGUGGUGCUCUACAAGUACCGCUGCUACAAGGUGAGGCCCU (ssRNA, 2'-OMe all, 5'-amino) [5'-amino-2'-O-methyl oligo RNA affinity ligand]
- binding result: binds
